Test results as given in paper PMC3618615 (Nature structural & molecular biology, 2013).

Molecular target: T1, EYA2 Eya domain (EYA2ED) (human, UniProt O00167-1 253-538)
T1 sequence: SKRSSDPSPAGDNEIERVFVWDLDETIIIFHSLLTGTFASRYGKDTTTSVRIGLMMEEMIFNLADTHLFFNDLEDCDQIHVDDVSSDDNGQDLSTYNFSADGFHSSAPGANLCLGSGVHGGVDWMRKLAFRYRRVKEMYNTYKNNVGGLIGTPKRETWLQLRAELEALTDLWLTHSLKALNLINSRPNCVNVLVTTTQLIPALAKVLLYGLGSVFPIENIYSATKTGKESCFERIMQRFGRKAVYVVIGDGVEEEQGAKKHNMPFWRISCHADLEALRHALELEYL
Assay: crystal structure

binding result: binds
B1: MBP-SIX1 (human SIX1 residues 1-189 fused to MBP_B) (domain or fragment, UniProt Q15475 1-189, looked up)
chain: MSMLPSFGFTQEQVACVCEVLQQGGNLERLGRFLWSLPACDHLHKNESVLKAKAVVAFHRGNFRELYKILESHQFSPHNHPKLQQLWLKAHYVEAEKLRGRPLGAVGKYRVRRKFPLPRTIWDGEETSYCFKEKSRGVLREWYAHNPYPSPREKRELAEATGLTTTQVSNWFKNRRQRDRAAEAKEREN
